Assay results published in patent publication US20230375531A1 (MIT, published 2023).

How the values were obtained:
[1] = target: SARS-CoV-2 nucleocapsid (N) protein, recombinant, residues 1-419 (SARS-CoV-2, UniProt P0DTC9 1-419)
[2] = target: T1, truncated N-terminal domain (NTD) of SARS-CoV-2 N protein (SARS-CoV-2, UniProt P0DTC9 44-180); assay: BLI, BA-MBP-Sso.E1 on streptavidin probes
T1 construct: domain: N-terminal domain (NTD)

[3] = target: T2, truncated C-terminal domain (CTD) of SARS-CoV-2 N protein (SARS-CoV-2, UniProt P0DTC9 247-364); assay: BLI, BA-MBP-Sso.E2 on streptavidin probes
T2 construct: domain: C-terminal domain (CTD)

Row | Binder | Kd [1] | other results
1 | Sso.E1 (rcSso7d binder against SARS-CoV-2 N protein) (designed binder) MATVKFTYQGEEKQVDISKIKIVRRGGQWISFWYDEGGGAYGAGYVSEKDAPKELLQMLEKQ | 3.2 nM | –
2 | Sso.E2 (rcSso7d binder against SARS-CoV-2 N protein) (designed binder) MATVKFTYQGEEKQVDISKIKNVGRWGQIIDFDYDEGGGAIGIGAVSEKDAPKELLQMLEKQ | 4.2 nM | –
3 | BA-MBP-Sso.E1 (Sso.E1 fused to biotin and maltose binding protein) (designed binder, not shown: small tags and cut ends; large carriers, also called reporter reagent) MATVKFTYQGEEKQVDISKIKIVRRGGQWISFWYDEGGGAYGAGYVSEKDAPKELLQMLEKQ | – | binding result [2]: no binding
4 | BA-MBP-Sso.E2 (Sso.E2 fused to biotin and maltose binding protein) (designed binder) MATVKFTYQGEEKQVDISKIKNVGRWGQIIDFDYDEGGGAIGIGAVSEKDAPKELLQMLEKQ | – | binding result [3]: no binding
